This data set can be described thus: soluble on expression in E. coli; label from the status in PepcDB or PDB records.
For the sequence “MGSDKIHHHHHHVGCMKWDYGKMEPFRATGDGLFIMNEGNFQYGNATLSYYDPETKKVENEIFYRANAMKLGDVAQSMIVRDTIGWVVVNNSHVIFAISTNTFKEVGRITGLTSPRYIHFISDEKAYITQIWDYRIFIVNPKTYQITGYIECPDMTMETGSTEQMVQYGKYVYVNCWSYQNRILKIDTTTDKVVDQLTVGIQPTSLVMDKNFKMWTITDGGYKGSPYGYEEPSLYRIDAETFKIEKQFKFQLGDAPSEVQLNGAGDELYWINKDIWRMSVDEERVPVRPFLKYRDTKYYGLTVSPKNGDVYVADAIDYQQQGMIYRYTEDGELVDEFYVGIIPGAFCWK”, the “soluble on expression in E. coli” value is recorded as “not soluble”.

In the case of “MDPNFHNTGPSGSAPRKPETWRSCKEANKVIEMFYSEGNFYHDIYMEELANLAETSHKNVRDTLSRLRKKDERAGKYVPPPPKQMYEFTSEQRGALDQAFLVTPQMDSDGARELSEITGLTVKQINNWFCNQRRKADGRSAEKDKKRRERIREDMKKNGLGRVGTFRSEAVELFEKEYETMLQLEAIGGGKVRIPYTELVEKTGMERKKIRDWFSKRKGRDKRFLENMENTREVSPQNTQQNIQDILIKIVTQKEESALQRHAPEMRDAGQRDGFCLFGFFLRD”, the “soluble on expression in E. coli” value is given as “not soluble”. The result for “VKPKGAFKAFTGEGQKLGSTAPQVLNTSSPAQQAENEAKASSSILINEAEPTTNIQIRLADGGRLVQKFNHSHRISDIRLFIVDARPAMAATSFVLMTTFPNKELADENQTLKEANLLNAVIVQRLT” reads “soluble”; that for “MTIAVSPQALPALVLNADYRPLSYYPLSLWSWQDAIKAVFLDRVNIIAEYDHAVSSPSFSMRLPSVVSLKTYVQPIRNPAFTRFNVFLRDKFECQYCGTRDELTFDHVIPRAHGGETTWHNVVAACSPCNLRKGSKLPKQAGMFPAQKPFQPTVQDLHNNGRLFPPNYLHESWMDYLYWDTELQPLEHHHHHH”, “not soluble”. Next, “MGSDKIHHHHHHMSTYKINNEQLTLIKEMPFKLEKEIQNIVERNLQTLLGLDFIKTEFSIGSFRIDSLAFDSEKKSFVIIEYKRDKNFSVIDQGYAYLSLMLNNKAEFILEYNESKSGALKRNDVDWSQSKVLFVSPNFTTYQKEAINFKDLPIELWEIKRFTNDTLSFGQIVNRSSKESIKTVSNSEAITTVSKEIKVYSEQDHLENIKDDFLNIYTEIKEFLLSFGEDITIYPKKKTIGFKIGGKVFCDIVMQNKGIRLFLNAKKGTLKDPEGITRDVSEVGHWGNGAYEVRFPLKNDAEIDFVFNLLRQTINKNKE”: “not soluble”; “MKAKLKQLRRLVESSFPEIENFHEKVDASFEKLENAKSFWSEIYVAHLKVVGDGVKVPESVFIKVPRISENVLRCEDESAVNHLNDVLLYYSKKENLFYKHFEYGSIPNFPFPKVYFTEDINGEATGGIVAENLSEKVFAVEHIPGLKHEQILRLMEALAGLHSFLMKRDDKSYVESFVEGAHGRETFSEGMQNMMFEEALTLENVSPEVFGNDRIRNIKWSFDYSIKNKATADAISAFPGIICHADLNVTNVLWKKDSAKDEISAIIDYQMLFIGSIAFDIIRVLTLGLNREIRRKMTQNYLDHYHKTLTELSNGKAPFSMEELLHQYSLIYPFSSNFSLFGIALYIKMYSDGTLGNPEDKEENCKELIDRALGIVEDIEALKNNYK”: “not soluble”; “MGSDKIHHHHHHMDTQQLYFLNDIGKQKPESIRNRSAACPFCDRENLTDILATEGSIIWLKNKFPTLKDTFQTVLIETDNCEDHIATYTEEHMRSLIRFSIKHWLNLQKNEEFTSVILYKNHGPFSGGSLHHAHMQIIGMKYVNYLDNVEQDNFQGVIVQKNEHIELNISDRPIIGFTEFNIIIEDIGCIDELANYIQQTVRYILTDFHKGCSSYNLFFYYLNEKIICKVVPRFVVSPLYVGYKIPQVSTKIEDVKIQLAAYFTKQNDAIIHKKIE”: “not soluble”. Next, “MGSDKIHHHHHHMTEFAIELTGINKSFGAVKANRDVTMSVPKGSIHGIIGENGAGKSTLMSILYGYYHADSGTIRVNGKDVRIRNSQEAIRLGIGMVHQHFMLVETFTVLENIVLGAEGGRLLKGGMEQAREHLKELNKNYSLEVDPDALVGDLGVGLQQRVEILKALYRGADVLILDEPTAVLTPQEADHLFHILRSLKAQGKTVILITHKLREVMDITDNVSVMRAGTVVDNVRTCDVDKEKLADLMVGRKVSLKVDKADSQAGAAVLDVQGLTLIDERKVKLLDNLNFQVRAGEIVGIAGVSGNGQSELLEVLAGMRDPSAGAVVYKGEDLLKLPCRRKPRAAVYRQRGIGHIPEDRSREGLVKAFSTFENAILGYHDDKTLNSGPLYSRKKLVERTRDFIAQFDIRPGNPLLRVGLLSGGNQQKVVLAREIHANPDLLLIGQPTRGVDIGAIEFIHKRLIELRDEGKAILLVSVELEEILALSDRILVMAGGQITGEVAAKDADTISLGLLMGGHKH”: “not soluble”.

As to “MKQDVILVLDCGATNVRAIAVDRQGKIVARASTANASDIAAENSAWHQWSLDAILQRFADCCRSLSSALSECVVRGITVTTFGVDGALVDAQGKLLYPVISWKCPRTAAVMETIERFISPRQLQTLSGVGAFSFNTLYKLVWLKENHPRLLEQAHCWLFISSLINHRLTGEFTTDITMAGTSQLLDIHQRDFSPEILQATGLARRLFPRIVEAGAPIGTLQTDAARLLGLPAGVPVISAGHDTQFALFGAGAQQGEPVLSSGTWEILMVRSGQVDTSLLSQYPGSTCELDSQSGLYNPGMQWLASGVLEWVRKLLWTPETPWQTLIDEARAIPAGAEGVRMQCDLLACQNAGWQGVTLNTTRGHFYRAALEGLTAQLQRNLRTLEKIGHFNATELLLVGGGSRNALWNQIKANQLDIPIKVLDDAETTVAGAAMFGWYGVGEFSSPEQARAQVNYQYRYFWPQTEPEIIEGV”, the “soluble on expression in E. coli” value is reported as “not soluble”. Consider “MTHILFDSRRFLQLGAFASLSTALAGAARYVTSTSNNEPADNTPLTIGYVPIAGSAPIAIADALGLFKKHGVNVTLKKYSGWSDLWTAYATEQLDVAHMLSPMTVAINAGVTNASRPTELSFTQNTNGQAITLASKHYGSVNSAADLKGMVLGIPFEYSVHALLLRDYLVSNAVDPIADLELRLLRPADMVAQLTVEGIDGFIGPGPFNERAISNGSGRIWLLTKQLWDKHPCCAVAMAKEWKAEHPTAAQGVLNALEEASAILSNPAQFDSSARTLSQEKYLNQPATLLDGPS”, for which the “soluble on expression in E. coli” value was “not soluble”. In the case of “MNVTEISAGQFQEMVQAGATRLHTNAEYVNSLNVFPVPDGDTGTNMNLSMTSGAKAVADSRSEKVGELAGALSKGLLMGARGNSGVILSQLFRGFSKQIPEVTTLNAKDLAAAFTHGVETAYKAVMKPVEGTILTVSREAARSGERKAKETDDCIEVMTAVVAGAKRALAKTPDLLPVLKEVGVVDSGGQGLLFIYEGFLEALSGEFLPTETYEPSPAEMDEMVNAEHHRGVSGHVATEDIKFGYCTEIMVRIGEGPTVDSAFDYETFRNYLNELGDSLLVVNDDEIIKVHVHTEHPGEVMNYGQKFGSLVKIKVDNMRLQHETLVERDAQQEALTEKVRVPFAVIAIAAGEGVQELFRSLGASYIISGGQTMNPSTEDILKAVKEVNAEQVIILPNNKNIFMAADQAAEVADVPVAVVPSKTISQGMTAMLAFNDQQSLEENKASMTEMLDSVVSGQVTTAVRDTTIDDVEIKKDDFLGMIDGKIVVSEADRFNASLDTLNRMIDEDTEIVTIIVGEDGSVEEAEKLIAILVSENDELETELHEGGQPVYPYLFSAE”, the “soluble on expression in E. coli” value is reported as “not soluble”.

“MNRGVITISESGTVSMPTYTVWMTLQEIADMYNVFGCYVRKAVKAIFKDGILKEQGVRRHVRKNDRISYDVYSLELVIAVAFRIDSIESRAFREFIMQSVIGRQTSRTKLVCIFTENAMA”: the “soluble on expression in E. coli” value is “not soluble”. Consider “MGKRIAFWFEFASTYSYLSAMRIERAAADLGVTIAWEPFLLGPIFAAQGWTSSPFNLFPAKGRYMWRDMERLCARQGLPLTRPDPFPQNGLPAARLAMVAREMGHIAPFVRAVYAAQFGRGLVISDPQVLAECWAEAGLPPEAMEQAKSPEIKAALFAQGERAAALDLFGAPSFVVGEEVFWGDDRLDQALALAAQS”, for which the “soluble on expression in E. coli” value was “soluble”.
